Laboratory results from patent US20240150422A1.

Target: IL-12 receptor on HEK-Blue IL-12 cells (InvivoGen) (human) (UniProt P42701)
Assay: cell-based or functional assay

Sequence of IL-12 receptor on HEK-Blue IL-12 cells (InvivoGen) (human) (chain, as listed by the source limits assumed, chain 2 of 2, other chains not shown): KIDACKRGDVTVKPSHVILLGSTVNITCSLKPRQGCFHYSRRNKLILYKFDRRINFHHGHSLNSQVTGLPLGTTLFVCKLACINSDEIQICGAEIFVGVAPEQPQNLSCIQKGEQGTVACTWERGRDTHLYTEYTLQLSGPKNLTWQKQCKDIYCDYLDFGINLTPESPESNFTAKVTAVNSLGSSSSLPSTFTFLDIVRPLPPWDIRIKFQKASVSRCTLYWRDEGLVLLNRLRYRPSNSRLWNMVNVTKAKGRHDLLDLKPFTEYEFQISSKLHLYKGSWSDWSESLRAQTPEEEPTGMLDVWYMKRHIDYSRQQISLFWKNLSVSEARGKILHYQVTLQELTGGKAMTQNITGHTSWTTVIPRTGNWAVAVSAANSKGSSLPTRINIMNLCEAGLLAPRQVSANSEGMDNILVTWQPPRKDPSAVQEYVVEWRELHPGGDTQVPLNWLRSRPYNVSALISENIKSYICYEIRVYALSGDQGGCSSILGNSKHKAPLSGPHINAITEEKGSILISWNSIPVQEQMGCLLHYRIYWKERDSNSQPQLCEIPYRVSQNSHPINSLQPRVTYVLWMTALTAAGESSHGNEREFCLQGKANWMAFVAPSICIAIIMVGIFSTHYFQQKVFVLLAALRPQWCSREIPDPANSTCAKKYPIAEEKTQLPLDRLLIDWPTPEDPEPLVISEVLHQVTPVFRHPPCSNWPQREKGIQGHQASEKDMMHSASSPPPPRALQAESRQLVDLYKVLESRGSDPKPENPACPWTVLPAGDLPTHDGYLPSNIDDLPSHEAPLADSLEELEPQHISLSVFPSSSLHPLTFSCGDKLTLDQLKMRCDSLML

HEK-Blue IL-12 reporter assay, fold reduction in potency (fold (vs IL-12 Fc w.t.)) | HEK-Blue IL-12 reporter assay, fold reduction in EC50 value (fold (vs wild-type)) | Substance
404 | – | IL-12 Fc triple mutant Y40A/D126A/P127A (format of Example 1) (from UniProt P29459 23-219; P29460 23-328) (Fc fusion)
40 | – | IL-12 Fc double mutant Y40A/P127A (format of Example 1) (from UniProt P29459 23-219; P29460 23-328) (Fc fusion)
451 | – | IL-12 Fc quadruple mutant Y40A/T43A/D126A/P127A (format of Example 1) (from UniProt P29459 23-219; P29460 23-328) (Fc fusion)
– | 44 | IL-12 Fc double mutant Y40A/R129A (Example 7) (from UniProt P29459 23-219; P29460 23-328) (Fc fusion)
– | 6540 | IL-12 Fc double mutant Y40A/K170A (Example 7) (from UniProt P29459 23-219; P29460 23-328) (Fc fusion)
– | 67 | IL-12 Fc double mutant Y40A/K168A (Example 7) (from UniProt P29459 23-219; P29460 23-328) (Fc fusion)
38 | – | IL-12 Fc double mutant Y40A/D126A (format of Example 1) (from UniProt P29459 23-219; P29460 23-328) (Fc fusion)
